Test results: patent US20180362628A1 (KYMAB, published 2018)
Where two headings read alike, the source gives them in different places. No end group written: not given here. *: point of attachment. Biotin = O=C1N[C@H]2[C@H](CS[C@H]2CCCCC(=O)*)N1

How the values were obtained:
[1] = target: T1, biotinylated rCSP (biotin/rCSP, Example 3) (Plasmodium falciparum strain 3D7, UniProt P02893 19-389, biotinylated (sites not given)); experiment: BLI (Octet), biotin-rCSP on streptavidin sensor, antibody in solution
T1 construct: also called biotin/Pf CSP
T1 chain: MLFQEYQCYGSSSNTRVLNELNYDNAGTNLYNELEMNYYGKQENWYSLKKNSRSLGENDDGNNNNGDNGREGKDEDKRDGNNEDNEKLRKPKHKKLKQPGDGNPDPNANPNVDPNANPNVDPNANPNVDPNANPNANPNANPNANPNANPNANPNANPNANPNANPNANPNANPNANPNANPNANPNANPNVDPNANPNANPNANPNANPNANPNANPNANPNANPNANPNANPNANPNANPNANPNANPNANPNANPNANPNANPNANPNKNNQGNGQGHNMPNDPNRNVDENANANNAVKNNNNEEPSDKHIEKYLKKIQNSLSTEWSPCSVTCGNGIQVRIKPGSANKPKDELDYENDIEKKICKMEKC

[2] = target: T2, Peptide #16 (Biotin-SGSGDGNPDPNANPAV); experiment: BLI, biotin-peptide on streptavidin sensor, IgG1 in solution, 25 C
T2 construct: alanine scan variant; also called Peptide #16 44300
T2 peptide: Biotin-SGSGDGNPDPNANPAV

[3] = target: T3, Peptide #1 (Biotin-SGSGKPKHKKLKQPGDGNPDPNANP) (N-terminal biotin); experiment: as above
T3 construct: also called Peptide #1 44286
T3 peptide: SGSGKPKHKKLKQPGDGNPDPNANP

[4] = target: T4, Peptide #14 (Biotin-SGSGDGNPDPNAAPNV); experiment: as above
T4 construct: alanine scan variant; also called Peptide #14 44298
T4 peptide: Biotin-SGSGDGNPDPNAAPNV

[5] = target: T5, Peptide #3 (Biotin-SGSGHKKLKQPGDGNPDPNANPN) (N-terminal biotin); experiment: as above
T5 construct: also called Peptide #3 44288
T5 peptide: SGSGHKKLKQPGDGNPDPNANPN

[6] = target: T6, Peptide #7 (Biotin-SGSGDANPDPNANPNV); experiment: as above
T6 construct: alanine scan variant; also called Peptide #7 44291
T6 peptide: Biotin-SGSGDANPDPNANPNV

[7] = target: T7, Peptide #9 (Biotin-SGSGDGNADPNANPNV); experiment: as above
T7 construct: alanine scan variant; also called Peptide #9 44293
T7 peptide: Biotin-SGSGDGNADPNANPNV

[8] = target: T8, Peptide #10 (Biotin-SGSGDGNPAPNANPNV); experiment: as above
T8 construct: alanine scan variant; also called Peptide #10 44294
T8 peptide: Biotin-SGSGDGNPAPNANPNV

[9] = target: T9, Peptide #17 (Biotin-SGSGDGNPDPNANPNA); experiment: as above
T9 construct: alanine scan variant; also called Peptide #17 44301
T9 peptide: Biotin-SGSGDGNPDPNANPNA

[10] = target: T10, Peptide #12 (Biotin-SGSGDGNPDPAANPNV); experiment: as above
T10 construct: alanine scan variant; also called Peptide #12 44296
T10 peptide: Biotin-SGSGDGNPDPAANPNV

[11] = target: T11, Peptide #6 (Biotin-SGSGAGNPDPNANPNV); experiment: as above
T11 construct: alanine scan variant; also called Peptide #6 44290
T11 peptide: Biotin-SGSGAGNPDPNANPNV

[12] = target: T12, Peptide #15 (Biotin-SGSGDGNPDPNANANV); experiment: as above
T12 construct: alanine scan variant; also called Peptide #15 44299
T12 peptide: Biotin-SGSGDGNPDPNANANV

[13] = target: T13, Peptide #11 (Biotin-SGSGDGNPDANANPNV); experiment: as above
T13 construct: alanine scan variant; also called Peptide #11 44295
T13 peptide: Biotin-SGSGDGNPDANANPNV

[14] = target: T14, Peptide #4 (Biotin-SGSGNPDPNANP); experiment: as above
T14 construct: also called Peptide #4 44285
T14 peptide: Biotin-SGSGNPDPNANP

[15] = target: T15, Peptide #8 (Biotin-SGSGDGAPDPNANPNV); experiment: as above
T15 construct: alanine scan variant; also called Peptide #8 44292
T15 peptide: Biotin-SGSGDGAPDPNANPNV

[16] = target: T16, Peptide #5 (Biotin-SGSGDGNPDPNANPNV), original sequence of the alanine scan; experiment: as above
T16 construct: also called Peptide #5 44289
T16 peptide: Biotin-SGSGDGNPDPNANPNV

[17] = target: T17, Recombinant CSP (Wellcome Trust Sanger Institute, FIG. 22), CSP ectodomain with BirA biotinylation tag, … (Plasmodium falciparum strain 3D7, UniProt Q7K740 19-376, biotinylated at the BirA substrate peptide); experiment: SPR, IgG1 captured, CSP as analyte, 40 C; apparent affinity (avidity)
T17 construct: extracellular domain; Expressed in HEK293, 45 kDa; order of the tags is that of the legend, not confirmed; also called biotinylated recombinant CSP

[18] = target: T1, biotinylated rCSP (biotin/rCSP, Example …); experiment: BLI (Octet), biotin-rCSP on streptavidin sensor, antibody in solution
[19] = target: T2, Peptide #16 (Biotin-SGSGDGNPDPNANPAV); experiment: BLI, biotin-peptide on streptavidin sensor, IgG1 in solution, 25 C
[20] = target: T3, Peptide #1 …; experiment: as above
[21] = target: T4, Peptide #14 (Biotin-SGSGDGNPDPNAAPNV); experiment: as above
[22] = target: T5, Peptide #3 …; experiment: as above
[23] = target: T6, Peptide #7 (Biotin-SGSGDANPDPNANPNV); experiment: as above
[24] = target: T7, Peptide #9 (Biotin-SGSGDGNADPNANPNV); experiment: as above
[25] = target: T8, Peptide #10 (Biotin-SGSGDGNPAPNANPNV); experiment: as above
[26] = target: T18, Peptide #13 (Biotin-SGSGDGNPDPNKNPNV); experiment: as above
T18 construct: scan variant, alanine replaced by lysine; also called Peptide #13 44297
T18 peptide: Biotin-SGSGDGNPDPNKNPNV

[27] = target: T9, Peptide #17 (Biotin-SGSGDGNPDPNANPNA); experiment: as above
[28] = target: T10, Peptide #12 (Biotin-SGSGDGNPDPAANPNV); experiment: as above
[29] = target: T11, Peptide #6 (Biotin-SGSGAGNPDPNANPNV); experiment: as above
[30] = target: T12, Peptide #15 (Biotin-SGSGDGNPDPNANANV); experiment: as above
[31] = target: T13, Peptide #11 (Biotin-SGSGDGNPDANANPNV); experiment: as above
[32] = target: T14, Peptide #4 (Biotin-SGSGNPDPNANP); experiment: as above
[33] = target: T15, Peptide #8 (Biotin-SGSGDGAPDPNANPNV); experiment: as above
[34] = target: T16, Peptide #5 (Biotin-SGSGDGNPDPNANPNV), …; experiment: as above

B1: Antibody 667, human IgG1 (antibody, V domains shown)
VH: QVQLVQSGAEVKKPGASVKVSCRASGYTFTNYAMHWVRQAPGQRLEWMGWINAGNGYTKYSQKFQDRVTITRDTSATTAYMELSSLRSEDTAMYYCARDSFYDILSGPVYHYYGMDVWGQGTTVTVSS
VL: QSALTQPDSVSGSPGQSITISCTGTSNDVGIYNHVSWYQQHPGKAPKLMIYDVNKRPSGISNRFSGSKSGDTASLTISGLQAEDEADYYCCSYAGSSAWVFGGGTKLTVL
notes: human IgG1 with human lambda light chain constant region; also called AB-000667; Ab667
Kd [1]: 340 pM | Response (nm) [2]: 0.651 nm | Response (nm) [3]: 0.645 nm | Response (nm) [4]: -0.0141 nm | Response (nm) [5]: 0.814 nm | Response (nm) [6]: 0.951 nm | Response (nm) [7]: 0.696 nm | Response (nm) [8]: 3.22 nm | Response (nm) [9]: 1.09 nm | Response (nm) [10]: 0.0529 nm | Response (nm) [11]: 0.907 nm | Response (nm) [12]: 0.213 nm | Response (nm) [13]: 0.0953 nm | Response (nm) [14]: 0.163 nm | Response (nm) [15]: 0.692 nm | Response (nm) [16]: 0.635 nm | Kd [17]: 310 pM | koff [17]: 6.46e-05 s⁻¹ | kon [17]: 215000 M⁻¹ s⁻¹ | Kd [18]: 341 pM | koff [18]: 5.67e-05 s⁻¹ | kon [18]: 166000 M⁻¹ s⁻¹

B2: Antibody 668, human IgG1 (antibody, V domains shown)
VH: QVQLVQSGAEVKKPGASVKVSCKASGFTFTDYAMHWVRQAPGQRLEWMGWINAGNGYTKYSQKFQDRLTITRDTFASTVYMELSSLRSEDTTVYYCARDGFCPSNTCSGYYGMDVWGQGTTVTVSS
VL: QSALTQPASVSGSPGQSITISCTGTSSDVGSYNYVSWYQQHPGKAPKLMIYDVNTRPSGVSIRFSASKSGNTASLTVSGLQAEDEAVYYCSSYAGSSTWVFGGGTKLTVL
notes: human IgG1 with human lambda light chain constant region; HEK293 product; also called AB-000668; Ab668
Kd [1]: 570 pM | Response (nm) [19]: 4.72 nm | Response (nm) [20]: 6.47 nm | Response (nm) [21]: 0.597 nm | Response (nm) [22]: 6.34 nm | Response (nm) [23]: 4.88 nm | Response (nm) [24]: 4.72 nm | Response (nm) [25]: 5.82 nm | binding result [26]: no binding (tested: LOD 0.170 nm) | Response (nm) [27]: 4.86 nm | Response (nm) [28]: 4.74 nm | Response (nm) [29]: 4.9 nm | Response (nm) [30]: 5.69 nm | Response (nm) [31]: 6.01 nm | Response (nm) [32]: 4.69 nm | Response (nm) [33]: 4.86 nm | Response (nm) [34]: 4.71 nm | Kd [17]: 50 pM | koff [17]: 2.47e-05 s⁻¹ | kon [17]: 540000 M⁻¹ s⁻¹ | Kd [18]: 570 pM | koff [18]: 7.1e-05 s⁻¹ | kon [18]: 125000 M⁻¹ s⁻¹
